Assay [1] addresses wild-type ColE9 (colicin E9) (E. coli) (UniProt P09883). Put plainly: stopped-flow fluorescence; wild-type ColE9 under the same conditions (PBS pH 7.4, 25 °C); data not shown.
The target in assay [2] is pyocin S2 (P. aeruginosa, UniProt Q06584 1-689). The assay is described as follows: SAXS. As to conditions: both partners purified.
Sequence of pyocin S2 (Q06584 whole entry): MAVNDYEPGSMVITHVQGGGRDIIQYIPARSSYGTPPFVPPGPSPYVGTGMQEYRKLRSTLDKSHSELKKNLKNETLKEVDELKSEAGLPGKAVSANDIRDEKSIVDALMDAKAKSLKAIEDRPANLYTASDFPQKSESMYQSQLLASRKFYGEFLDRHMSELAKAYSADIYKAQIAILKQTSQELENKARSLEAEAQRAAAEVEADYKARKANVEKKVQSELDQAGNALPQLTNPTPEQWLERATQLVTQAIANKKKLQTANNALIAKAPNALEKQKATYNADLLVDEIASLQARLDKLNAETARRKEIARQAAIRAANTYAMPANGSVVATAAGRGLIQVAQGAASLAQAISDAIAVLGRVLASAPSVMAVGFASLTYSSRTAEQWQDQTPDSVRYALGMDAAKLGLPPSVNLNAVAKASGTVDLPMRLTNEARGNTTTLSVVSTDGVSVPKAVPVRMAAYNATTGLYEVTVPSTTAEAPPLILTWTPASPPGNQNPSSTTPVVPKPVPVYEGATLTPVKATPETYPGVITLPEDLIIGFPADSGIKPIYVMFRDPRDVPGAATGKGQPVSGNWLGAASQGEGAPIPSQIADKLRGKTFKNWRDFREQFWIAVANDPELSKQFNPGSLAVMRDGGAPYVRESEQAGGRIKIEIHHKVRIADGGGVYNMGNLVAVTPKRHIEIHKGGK

Sequence of wild-type ColE9 (colicin E9) (E. coli) (P09883 whole entry): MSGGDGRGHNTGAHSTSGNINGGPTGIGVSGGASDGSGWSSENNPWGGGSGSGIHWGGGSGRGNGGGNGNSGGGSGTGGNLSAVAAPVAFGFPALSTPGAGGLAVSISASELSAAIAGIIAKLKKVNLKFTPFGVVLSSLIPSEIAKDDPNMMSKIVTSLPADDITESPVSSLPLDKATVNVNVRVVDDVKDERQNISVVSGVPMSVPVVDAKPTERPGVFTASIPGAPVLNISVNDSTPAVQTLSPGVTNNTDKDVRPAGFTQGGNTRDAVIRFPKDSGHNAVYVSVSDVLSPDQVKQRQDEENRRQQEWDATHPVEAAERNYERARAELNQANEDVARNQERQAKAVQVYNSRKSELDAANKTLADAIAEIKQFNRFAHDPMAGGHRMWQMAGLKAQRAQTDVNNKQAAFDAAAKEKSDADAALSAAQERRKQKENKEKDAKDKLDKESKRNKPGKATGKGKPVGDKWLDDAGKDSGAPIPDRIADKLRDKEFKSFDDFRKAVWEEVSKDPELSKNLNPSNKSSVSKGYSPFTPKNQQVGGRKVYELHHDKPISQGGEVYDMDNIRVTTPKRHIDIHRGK

For “Im9 (immunity protein 9) (from UniProt P13479 1-86) (natural protein)”, in assay [1], the k1 (bimolecular collision) came out at 1.28e+08 M⁻¹ s⁻¹ and the k2 app (conformational change) worked out at 2.76 s⁻¹.

B1: ImS2 (pyocin S2 immunity protein) (natural protein)
chain: MKSKISEYTEKEFLEFVKDIYTNNKKKFPTEESHIQAVLEFKKLTEHPSGSDLLYYPNENREDSPAGVVKEVKEWRASKGLPGFKAG
notes: not shown: His6, C-terminal, kept
In the case of B1, the binding result in assay [2] is given as “binds”.

The values above are taken from paper PMC5264503, “Structural and biophysical analysis of nuclease protein antibiotics” (Biochemical Journal, 2016).
